Measurements reported in US20220105194A1, “CONJUGATE COMPRISING LIGAND, SPACER, PEPTIDE LINKER, AND BIOMOLECULE” (ASTELLAS PHARMA INC., priority 2019, published 2022).

What was measured:
[1] = mouse, in vivo
Experimental: (§1) A Gd-labeled conjugate of the conjugate containing a peptide linker produced in one of the above Examples was administered from the tail vein of mice (BALB/c or BALB/c nu/nu) so that the protein mass was 0.02 mg (100 μL) per animal. After about 24 hours, the mice were sacrificed and the kidneys were removed, and the amount of Gd in the kidneys was measured using ICP-MS. The present test was carried out in 3 cases in each group, the mean value of the 3 cases was calculated, and the amount of Gd contained per kidney after administration was shown as a percentage (% of dose/tissue) of the total amount of Gd administered.
Based on the percentage of the control conjugate (% of dose/tissue), the proportion of decrease in the amount of Gd contained in the kidneys of each of the conjugates having a peptide linker was determined and shown in Table 28.

[2] = design: species or system mice (BALB/c nu/nu); settings: mouse, in vivo
Experimental: A Gd-labeled conjugate of the conjugate containing a peptide linker produced in one of the above Examples was administered from the tail vein of tumor-bearing mice so that the protein mass was 0.02 mg (100 μL) per animal. As the tumor-bearing mice used in the present Example, mice (BALB/c nu/nu) that were in a tumor-bearing state brought about by transplanting human colorectal cancer cell line LS174T cells (ATCC(registered trademark); CL-188) at 2.0 to 5.0×10^6 cells/mouse subcutaneously on the back before administration of the sample were used. 24 hours after administration of the sample, the mice were sacrificed, the kidneys and the tumor were removed, and the amounts of Gd in the kidneys and in the tumor were measured using ICP-MS. The present test was carried out in 3 cases in each group, and the mean value of the 3 cases was calculated. The amount of Gd contained per kidney after administration was shown as a percentage of the amount of Gd administered (% of dose/tissue), and the amount of Gd contained per g of tumor tissue was shown as a percentage of the total amount of Gd administered (% of dose/g).

[3] = design: species or system mice (BALB/c or BALB/c nu/nu); settings: mouse, in vivo
Experimental: as §1

[4] = target: human cancer-specific MUC1 peptide (PTL 1) (human); assay: ELISA, immobilised MUC1 peptide (Example 6-1)
[5] = target: human cancer-specific MUC1 peptide (PTL 1) (human); assay: ELISA, immobilised MUC1 peptide (Example 6-2)

Chain of human cancer-specific MUC1 peptide (PTL 1) (human) (main, as listed by the source): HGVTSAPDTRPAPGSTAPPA

| Molecule | Proportion of decrease (%) in the amount of Gd contained in the kidneys [1] | Renal residual amount (cancer-bearing mice), % of dose/tissue [2] | Renal residual amount (cancer-bearing mice), Proportion of decrease (%) [2] | other results |
| --- | --- | --- | --- | --- |
| [Gd/DOTA-NH—(CH2CH2O)3—CH2—C(═O)—NH—CH2-(1,3-Ph)-C(═O)-Met-Gly-Lys*-Z2(#N)]p-Fab^2 (conjugate) heavy: EVQLVESGGGLVQPGGSLRLSCAASGFNIRDTYMHWVRQAPGKGLEWVARIDPANGNSRYVPKFQGRFTISADTSRNTAYLQMNSLRAEDTAVYYCAPFGYYVSDYAMAYWGQGTLVTVSSASTKGPSVFPLAPSSKSTSGGTAALGCLVKDYFPEPVTVSWNSGALTSGVHTFPAVLQSSGLYSLSSVVTVPSSSLGTQTYICNVNHKPSNTKVDKKVEPKSCD light: DIQLTQSPSSLSASVGDRVTITCRAGESVDIFGVGFLHWYQQKPGKAPKLLIYRASNLESGIPSRFSGSGSRTDFTLTISSLQPEDFATYYCQQTNEDPYTFGQGTKVEIKRTVAAPSVFIFPPSDEQLKSGTASVVCLLNNFYPREAKVQWKVDNALQSGNSQESVTEQDSKDSTYSLSSTLTLSKADYEKHKVYACEVTHQGLSSPVTKSFNRGEC | 78.0% | 8.40 % of dose/tissue | 67.48% |  |
| [Gd/DOTA-NH—CH2-(1,3-Ph)-C(═O)-Met-Gly-Lys*-Z2(#N)]p-Fab^2 (conjugate) heavy: EVQLVESGGGLVQPGGSLRLSCAASGFNIRDTYMHWVRQAPGKGLEWVARIDPANGNSRYVPKFQGRFTISADTSRNTAYLQMNSLRAEDTAVYYCAPFGYYVSDYAMAYWGQGTLVTVSSASTKGPSVFPLAPSSKSTSGGTAALGCLVKDYFPEPVTVSWNSGALTSGVHTFPAVLQSSGLYSLSSVVTVPSSSLGTQTYICNVNHKPSNTKVDKKVEPKSCD light: DIQLTQSPSSLSASVGDRVTITCRAGESVDIFGVGFLHWYQQKPGKAPKLLIYRASNLESGIPSRFSGSGSRTDFTLTISSLQPEDFATYYCQQTNEDPYTFGQGTKVEIKRTVAAPSVFIFPPSDEQLKSGTASVVCLLNNFYPREAKVQWKVDNALQSGNSQESVTEQDSKDSTYSLSSTLTLSKADYEKHKVYACEVTHQGLSSPVTKSFNRGEC | 50.3% |  |  |  |
| [Gd/DOTA-NH—CH2-(1,3-Ph)-C(═O)-Asp-Gly-Lys*-Z2(#N)]p-Fab^2 (conjugate) heavy: EVQLVESGGGLVQPGGSLRLSCAASGFNIRDTYMHWVRQAPGKGLEWVARIDPANGNSRYVPKFQGRFTISADTSRNTAYLQMNSLRAEDTAVYYCAPFGYYVSDYAMAYWGQGTLVTVSSASTKGPSVFPLAPSSKSTSGGTAALGCLVKDYFPEPVTVSWNSGALTSGVHTFPAVLQSSGLYSLSSVVTVPSSSLGTQTYICNVNHKPSNTKVDKKVEPKSCD light: DIQLTQSPSSLSASVGDRVTITCRAGESVDIFGVGFLHWYQQKPGKAPKLLIYRASNLESGIPSRFSGSGSRTDFTLTISSLQPEDFATYYCQQTNEDPYTFGQGTKVEIKRTVAAPSVFIFPPSDEQLKSGTASVVCLLNNFYPREAKVQWKVDNALQSGNSQESVTEQDSKDSTYSLSSTLTLSKADYEKHKVYACEVTHQGLSSPVTKSFNRGEC | 52.2% |  |  | Renal residual amount (normal mice), % of dose/tissue [3]: 21.67 % of dose/tissue; Renal residual amount (normal mice), Proportion of decrease (%) [3]: 26.12% |
| [Gd/DOTA-NH—CH2-(1,3-Ph)-C(═O)-Met-Gly-Lys*-Z2(#S)]p-Fab^2 (conjugate) heavy: EVQLVESGGGLVQPGGSLRLSCAASGFNIRDTYMHWVRQAPGKGLEWVARIDPANGNSRYVPKFQGRFTISADTSRNTAYLQMNSLRAEDTAVYYCAPFGYYVSDYAMAYWGQGTLVTVSSASTKGPSVFPLAPSSKSTSGGTAALGCLVKDYFPEPVTVSWNSGALTSGVHTFPAVLQSSGLYSLSSVVTVPSSSLGTQTYICNVNHKPSNTKVDKKVEPKSCD light: DIQLTQSPSSLSASVGDRVTITCRAGESVDIFGVGFLHWYQQKPGKAPKLLIYRASNLESGIPSRFSGSGSRTDFTLTISSLQPEDFATYYCQQTNEDPYTFGQGTKVEIKRTVAAPSVFIFPPSDEQLKSGTASVVCLLNNFYPREAKVQWKVDNALQSGNSQESVTEQDSKDSTYSLSSTLTLSKADYEKHKVYACEVTHQGLSSPVTKSFNRGEC | 58.3% | 12.33 % of dose/tissue | 52.26% |  |
| [Gd/DOTA-NH—CH2-(1,4-Ph)-NH—C(═O)-Met-Ile-NH—(CH2)2—Z(#N)]p-Fab^2 (conjugate) heavy: EVQLVESGGGLVQPGGSLRLSCAASGFNIRDTYMHWVRQAPGKGLEWVARIDPANGNSRYVPKFQGRFTISADTSRNTAYLQMNSLRAEDTAVYYCAPFGYYVSDYAMAYWGQGTLVTVSSASTKGPSVFPLAPSSKSTSGGTAALGCLVKDYFPEPVTVSWNSGALTSGVHTFPAVLQSSGLYSLSSVVTVPSSSLGTQTYICNVNHKPSNTKVDKKVEPKSCD light: DIQLTQSPSSLSASVGDRVTITCRAGESVDIFGVGFLHWYQQKPGKAPKLLIYRASNLESGIPSRFSGSGSRTDFTLTISSLQPEDFATYYCQQTNEDPYTFGQGTKVEIKRTVAAPSVFIFPPSDEQLKSGTASVVCLLNNFYPREAKVQWKVDNALQSGNSQESVTEQDSKDSTYSLSSTLTLSKADYEKHKVYACEVTHQGLSSPVTKSFNRGEC |  | 5.77 % of dose/tissue | 77.68% | Renal residual amount (normal mice), % of dose/tissue [3]: 2.60 % of dose/tissue; Renal residual amount (normal mice), Proportion of decrease (%) [3]: 91.13% |
| Ex-No 10: (Y—S1—X)p-Fab^2: Y Gd/DOTA, S1 bond, X -Met-Ile-Lys*-Z2(#N)— (conjugate) heavy: EVQLVESGGGLVQPGGSLRLSCAASGFNIRDTYMHWVRQAPGKGLEWVARIDPANGNSRYVPKFQGRFTISADTSRNTAYLQMNSLRAEDTAVYYCAPFGYYVSDYAMAYWGQGTLVTVSSASTKGPSVFPLAPSSKSTSGGTAALGCLVKDYFPEPVTVSWNSGALTSGVHTFPAVLQSSGLYSLSSVVTVPSSSLGTQTYICNVNHKPSNTKVDKKVEPKSCD light: DIQLTQSPSSLSASVGDRVTITCRAGESVDIFGVGFLHWYQQKPGKAPKLLIYRASNLESGIPSRFSGSGSRTDFTLTISSLQPEDFATYYCQQTNEDPYTFGQGTKVEIKRTVAAPSVFIFPPSDEQLKSGTASVVCLLNNFYPREAKVQWKVDNALQSGNSQESVTEQDSKDSTYSLSSTLTLSKADYEKHKVYACEVTHQGLSSPVTKSFNRGEC |  |  |  | Renal residual amount (normal mice), % of dose/tissue [3]: 20.10 % of dose/tissue; Renal residual amount (normal mice), Proportion of decrease (%) [3]: 31.46% |
| [Gd/DOTA-NH—(CH2CH2O)3—CH2—C(═O)—NH—CH2-(1,3-Ph)-C(═O)-Met-Gly-Lys*-Z2(#S)]p-Fab^2 (conjugate) heavy: EVQLVESGGGLVQPGGSLRLSCAASGFNIRDTYMHWVRQAPGKGLEWVARIDPANGNSRYVPKFQGRFTISADTSRNTAYLQMNSLRAEDTAVYYCAPFGYYVSDYAMAYWGQGTLVTVSSASTKGPSVFPLAPSSKSTSGGTAALGCLVKDYFPEPVTVSWNSGALTSGVHTFPAVLQSSGLYSLSSVVTVPSSSLGTQTYICNVNHKPSNTKVDKKVEPKSCD light: DIQLTQSPSSLSASVGDRVTITCRAGESVDIFGVGFLHWYQQKPGKAPKLLIYRASNLESGIPSRFSGSGSRTDFTLTISSLQPEDFATYYCQQTNEDPYTFGQGTKVEIKRTVAAPSVFIFPPSDEQLKSGTASVVCLLNNFYPREAKVQWKVDNALQSGNSQESVTEQDSKDSTYSLSSTLTLSKADYEKHKVYACEVTHQGLSSPVTKSFNRGEC | 77.4% | 9.40 % of dose/tissue | 63.61% |  |
| [Gd/DOTA-NH—(CH2CH2O)3—CH2—C(═O)—NH—CH2-(1,3-Ph)-C(═O)-Gly-Lys*—Z2(#N)]p-Fab^2 (conjugate) heavy: EVQLVESGGGLVQPGGSLRLSCAASGFNIRDTYMHWVRQAPGKGLEWVARIDPANGNSRYVPKFQGRFTISADTSRNTAYLQMNSLRAEDTAVYYCAPFGYYVSDYAMAYWGQGTLVTVSSASTKGPSVFPLAPSSKSTSGGTAALGCLVKDYFPEPVTVSWNSGALTSGVHTFPAVLQSSGLYSLSSVVTVPSSSLGTQTYICNVNHKPSNTKVDKKVEPKSCD light: DIQLTQSPSSLSASVGDRVTITCRAGESVDIFGVGFLHWYQQKPGKAPKLLIYRASNLESGIPSRFSGSGSRTDFTLTISSLQPEDFATYYCQQTNEDPYTFGQGTKVEIKRTVAAPSVFIFPPSDEQLKSGTASVVCLLNNFYPREAKVQWKVDNALQSGNSQESVTEQDSKDSTYSLSSTLTLSKADYEKHKVYACEVTHQGLSSPVTKSFNRGEC | 44.8% |  |  |  |
| ([Gd/DOTA-NH-CH2-(1,4-Ph)-NH-C(═O)-Met-Ile-NH-(CH2)2-(A-4 and/or A-5)]p-Fab^5) (Fab, V domains shown, labeling portion on p amino groups of the Fab; chain and sites not stated) VH: QVQLVQSGAEVKKPGASVKVSCKASGYTFTNYGLSWVRQAPGQGLEWMGENHPGSGIIYHNEKFRGRVTLTADRSTSTAYMELSSLRSEDTAVYYCARSSGTRGFDYWGQGTLVTVSS VL: DVVMTQTPLSLSVTPGQPASISCRSSQSIVHSNGNTYLEWYLQKPGQSPQLLIYRVSNRFSGVPDRFSGSGSGTDFTLKISRVEAEDVGVYYCFQGSHGPWTFGQGTKLEIKR |  |  |  | EC50 [4]: 80 pM |
| ([Gd/DOTA-[2,5-(1,2,3,4-tetrahydroisoquinoline)]-C(═O)-Met-Gly-Lys*-C(═S)-NH-(1,4-Ph)-NH-C(═S)]p-Fab^5) (Fab, V domains shown, labeling portion on p amino groups of the Fab; chain and sites not stated) VH: QVQLVQSGAEVKKPGASVKVSCKASGYTFTNYGLSWVRQAPGQGLEWMGENHPGSGIIYHNEKFRGRVTLTADRSTSTAYMELSSLRSEDTAVYYCARSSGTRGFDYWGQGTLVTVSS VL: DVVMTQTPLSLSVTPGQPASISCRSSQSIVHSNGNTYLEWYLQKPGQSPQLLIYRVSNRFSGVPDRFSGSGSGTDFTLKISRVEAEDVGVYYCFQGSHGPWTFGQGTKLEIKR |  |  |  | EC50 [5]: 190 pM |
| ([Gd/DOTA-NH-CH2-(1,4-Ph)-NH-C(═O)-Met-Ile-NH-(CH2)2-Z1(#N)]p-Fab^5) (Fab, V domains shown, labeling portion on p amino groups of the Fab; chain and sites not stated) VH: QVQLVQSGAEVKKPGASVKVSCKASGYTFTNYGLSWVRQAPGQGLEWMGENHPGSGIIYHNEKFRGRVTLTADRSTSTAYMELSSLRSEDTAVYYCARSSGTRGFDYWGQGTLVTVSS VL: DVVMTQTPLSLSVTPGQPASISCRSSQSIVHSNGNTYLEWYLQKPGQSPQLLIYRVSNRFSGVPDRFSGSGSGTDFTLKISRVEAEDVGVYYCFQGSHGPWTFGQGTKLEIKR |  |  |  | EC50 [5]: 80 pM |
| ([Gd/DOTA-NH-CH2-(1,4-Ph)-NH-C(═O)-Met-Ile-NH-(CH2)2-Z1(#S)]p-Fab^5) (Fab, V domains shown, labeling portion on p amino groups of the Fab; chain and sites not stated) VH: QVQLVQSGAEVKKPGASVKVSCKASGYTFTNYGLSWVRQAPGQGLEWMGENHPGSGIIYHNEKFRGRVTLTADRSTSTAYMELSSLRSEDTAVYYCARSSGTRGFDYWGQGTLVTVSS VL: DVVMTQTPLSLSVTPGQPASISCRSSQSIVHSNGNTYLEWYLQKPGQSPQLLIYRVSNRFSGVPDRFSGSGSGTDFTLKISRVEAEDVGVYYCFQGSHGPWTFGQGTKLEIKR |  |  |  | EC50 [5]: 90 pM |
